Measurements as given in US20250325643A1 (Genmab, published 2025).

Assays:
[1] = target: T1, human C1q (from normal human serum) (human, UniProt P02745 23-245; P02746 28-253; P02747 29-245); assay: flow cytometry: human T cells opsonised with the antibody, 20% normal human serum as source of C1q, FITC-labelled rabbit anti-human C1q
T1 construct: 20% normal human serum was the source of C1q

[2] = target: T2, recombinant His-tagged human FcγRIIIa 176-Val (Sino Biological, Cat #10389-H27H1-B) (human, UniProt P08637 17-208); assay: SPR (Biacore): His-tagged FcγRIIIa-V captured on an anti-His chip, antibody injected
T2 construct: Bought protein; also called FcγRIIIa-V; FcγRIIIa (176-Val [V]); not shown: His tag

[3] = target: T3, recombinant His-tagged human FcγRIIa 167-His (Sino Biological, Cat #10374-H27H) (human, UniProt P12318 34-218); assay: SPR (Biacore): His-tagged FcγRIIa-H captured on an anti-His chip, antibody injected
T3 construct: Bought protein; also called FcγRIIa-H; FcγRIIa (167-His [H]); not shown: His tag
T3 sequence (looked up): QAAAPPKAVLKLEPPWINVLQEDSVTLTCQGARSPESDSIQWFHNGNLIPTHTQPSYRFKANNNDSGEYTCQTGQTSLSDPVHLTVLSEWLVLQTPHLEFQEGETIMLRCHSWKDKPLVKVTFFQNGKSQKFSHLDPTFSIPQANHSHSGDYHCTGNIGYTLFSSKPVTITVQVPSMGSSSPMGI

[4] = target: T4, recombinant His-tagged human FcγRIIIa 176-Phe (Sino Biological, Cat #10389-H27H-B) (human, UniProt P08637 17-208); assay: SPR (Biacore): His-tagged FcγRIIIa-F captured on an anti-His chip, antibody injected
T4 construct: Bought protein; also called FcγRIIIa-F; FcγRIIIa (176-Phe [F]); not shown: His tag

[5] = target: T5, recombinant His-tagged human FcγRIa (Sino Biological, Cat #10256-H08S-B) (human, UniProt P12314 16-288); assay: SPR (Biacore): His-tagged FcγRIa captured on an anti-His chip, antibody injected; resonance units against antibody concentration
T5 construct: Bought protein; not shown: His tag
Procedure: Binding of IgG1-CD27-A-P329R-E345R to human FcγR variants was analyzed using a Biacore surface plasmon resonance (SPR) system and compared to an anti-HIV gp120 antibody IgG1-b12 (ctrl). Biacore Series S Sensor Chips CM5 (Cytiva, Cat #29104988) were covalently coated with anti-His antibody using amine-coupling and His capture kits (Cytiva, Cat #BR100050 and Cat #29234602) according to the manufacturer's instructions. […] After three cycles of buffer, antibody samples were injected for 36 cycles to generate binding curves using antibody ranges of 0-3,000 nM for FcγRI and 0-10,000 nM for the other FcγRs. Each sample that was analyzed on an FcR-coated surface (Active Surface) was also analyzed on a parallel flow-cell without FcR (Reference Surface), which was used for background correction. Dissociation from the anti-His-coated surface was performed by regeneration of the surface using 10 mM Glycine-HCl pH 1.5 (Cytiva, Cat #BR100354). Sensograms were generated using Biacore Insight Evaluation software (Cytiva) and a four-parameter logistic (4PL) fit was applied to calculate relative binding of IgG1-CD27-A-P329R-E345R against the reference sample (ctrl).

[6] = target: T6, recombinant His-tagged human FcγRIIa 167-Arg (Sino Biological, Cat #10374-H27H1-B) (human, UniProt P12318 34-218); assay: SPR (Biacore): His-tagged FcγRIIa-R captured on an anti-His chip, antibody injected
T6 construct: Bought protein; also called FcγRIIa-R; FcγRIIa (167-Arg [R]); not shown: His tag
T6 sequence (looked up): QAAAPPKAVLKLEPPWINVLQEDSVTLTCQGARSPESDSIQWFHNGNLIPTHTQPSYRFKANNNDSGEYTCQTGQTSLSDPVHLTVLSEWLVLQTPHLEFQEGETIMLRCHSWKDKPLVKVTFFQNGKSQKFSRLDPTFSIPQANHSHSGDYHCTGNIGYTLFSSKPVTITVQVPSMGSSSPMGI

[7] = target: T7, human CD27 expressed on cells (T cells, transfected HEK293F cells, Daudi cells, NFκB-luc2/CD27 Jurkat … (human, UniProt P26842 20-240)); assay: flow cytometry on CD4+ T cells in human PBMC, FITC-conjugated goat anti-human IgG F(ab')2, median FITC
T7 construct: also called TNFRSF7
T7 sequence: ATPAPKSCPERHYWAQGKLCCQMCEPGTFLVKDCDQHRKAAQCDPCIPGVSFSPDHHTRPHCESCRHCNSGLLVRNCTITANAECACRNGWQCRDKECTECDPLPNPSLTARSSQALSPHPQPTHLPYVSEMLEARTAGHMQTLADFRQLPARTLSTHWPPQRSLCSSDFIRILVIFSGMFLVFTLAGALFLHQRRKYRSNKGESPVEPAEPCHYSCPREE
Procedure: (§1) Binding of IgG1-CD27-A-P329R-E345R to CD27 on human healthy donor T cells was characterized in more detail using flow cytometry. Anti-HIV gp120 antibody variant IgG1-b12-P329R-E345R was used as non-binding control antibody (ctrl). Human PBMCs were isolated from buffy coats obtained from human healthy donors. PBMCs (1×10⁵ cells/well) in FACS buffer were added to polystyrene 96-well round-bottom plates (Greiner bio-one, Cat #650101) and pelleted by centrifugation at 300×g for 3 min at 4° C. The cells were resuspended in 50 μL/well serial antibody dilutions in FACS buffer (range 0.0015 to 10 μg/mL in 3-fold dilution steps) and incubated for 30 min at 4° C. Cells were pelleted, washed twice with FACS buffer and incubated in 50 μL/well with FITC-conjugated secondary antibody (FITC AffiniPure F(ab′)₂ fragment goat anti-human IgG, F(ab′)₂ fragment specific, Jackson ImmunoResearch, Cat #109-096-097, diluted 1:100) for 30 min at 4° C. in the dark. […] The samples were measured by flow cytometry on an LSRFortessa (BD) flow cytometer and analyzed using FlowJo software. Binding curves were analyzed using non-linear regression (sigmoidal dose-response with variable slope) using GraphPad Prism 8 software.

[8] = target: T7, human CD27 expressed on cells (T cells, …); assay: flow cytometry on CD8+ T cells in human PBMC, FITC-conjugated goat anti-human IgG F(ab')2, median FITC
Procedure: as §1

[9] = target: T8, recombinant His-tagged human FcγRIIb (Sino Biological, Cat #10259-H27H-B) (human, UniProt P31994 43-217); assay: SPR (Biacore): His-tagged FcγRIIb captured on an anti-His chip, antibody injected
T8 construct: Bought protein; not shown: His tag
T8 sequence (looked up): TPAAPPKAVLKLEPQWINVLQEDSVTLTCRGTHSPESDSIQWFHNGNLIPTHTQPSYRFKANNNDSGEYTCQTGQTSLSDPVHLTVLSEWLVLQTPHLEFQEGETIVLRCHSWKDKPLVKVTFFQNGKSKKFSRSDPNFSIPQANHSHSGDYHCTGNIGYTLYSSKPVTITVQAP

[10] = target: T9, cynomolgus monkey CD27 expressed on cells (cynomolgus monkey T cells, transfected HEK293F cells) (cynomolgus monkey, UniProt P26842 20-260 (human entry)); assay: flow cytometry on T cells in cynomolgus monkey PBMC, PE-labelled goat anti-human IgG, median MFI PE
T9 construct: also called cyno CD27
T9 chain: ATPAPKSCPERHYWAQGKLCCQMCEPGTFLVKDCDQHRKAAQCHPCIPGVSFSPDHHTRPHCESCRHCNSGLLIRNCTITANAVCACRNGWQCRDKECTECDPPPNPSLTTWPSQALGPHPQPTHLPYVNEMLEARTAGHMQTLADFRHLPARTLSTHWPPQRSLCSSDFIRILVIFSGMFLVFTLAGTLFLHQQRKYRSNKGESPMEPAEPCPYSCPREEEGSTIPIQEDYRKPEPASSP

[11] = target: T7, human CD27 expressed on cells (T cells, …); assay: flow cytometry on T cells in human PBMC, PE-labelled goat anti-human IgG, median MFI PE

T5 sequence (P12314 16-288 limits assumed, stated change not applied): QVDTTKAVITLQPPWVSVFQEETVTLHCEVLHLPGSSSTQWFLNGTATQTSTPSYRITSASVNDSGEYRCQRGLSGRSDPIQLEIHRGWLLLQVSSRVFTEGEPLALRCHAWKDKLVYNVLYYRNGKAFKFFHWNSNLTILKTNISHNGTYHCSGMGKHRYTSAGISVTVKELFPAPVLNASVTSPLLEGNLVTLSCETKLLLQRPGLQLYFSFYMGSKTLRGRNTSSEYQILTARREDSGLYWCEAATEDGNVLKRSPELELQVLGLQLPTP
T1 sequence (P02745 23-245 limits assumed, chain 1 of 3): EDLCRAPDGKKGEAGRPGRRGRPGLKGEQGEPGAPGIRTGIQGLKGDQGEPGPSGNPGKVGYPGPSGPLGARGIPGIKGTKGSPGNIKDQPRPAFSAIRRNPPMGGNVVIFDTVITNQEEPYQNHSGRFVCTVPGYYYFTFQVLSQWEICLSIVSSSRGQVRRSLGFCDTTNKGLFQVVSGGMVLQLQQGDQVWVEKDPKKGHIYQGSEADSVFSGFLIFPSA
T1 sequence (P02746 28-253 limits assumed, chain 2 of 3): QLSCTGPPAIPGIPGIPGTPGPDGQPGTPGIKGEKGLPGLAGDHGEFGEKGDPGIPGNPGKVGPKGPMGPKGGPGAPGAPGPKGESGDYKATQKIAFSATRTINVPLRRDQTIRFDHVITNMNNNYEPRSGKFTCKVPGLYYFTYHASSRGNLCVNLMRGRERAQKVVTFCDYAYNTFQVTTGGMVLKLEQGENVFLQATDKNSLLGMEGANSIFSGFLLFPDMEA
T1 sequence (P02747 29-245 limits assumed, chain 3 of 3): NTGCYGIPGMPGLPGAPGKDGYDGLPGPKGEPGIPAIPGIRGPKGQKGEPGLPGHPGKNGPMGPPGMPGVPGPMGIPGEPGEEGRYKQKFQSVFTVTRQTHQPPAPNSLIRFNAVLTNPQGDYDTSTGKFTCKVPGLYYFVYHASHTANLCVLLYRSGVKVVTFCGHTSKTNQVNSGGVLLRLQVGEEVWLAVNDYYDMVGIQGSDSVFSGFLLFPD
T4 sequence (P08637 17-208 limits assumed): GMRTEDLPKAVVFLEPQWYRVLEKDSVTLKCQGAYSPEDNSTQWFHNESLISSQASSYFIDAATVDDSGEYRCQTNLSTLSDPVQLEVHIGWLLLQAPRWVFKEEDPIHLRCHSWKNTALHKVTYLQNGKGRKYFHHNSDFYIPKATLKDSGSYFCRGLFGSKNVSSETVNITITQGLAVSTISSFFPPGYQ
T2 sequence (P08637 17-208 F176V limits assumed): as the sequence (P08637 17-208 limits assumed) above, with F160V counted along it

B1: IgG1-CD27-A-P329R-E345R (antibody)
heavy: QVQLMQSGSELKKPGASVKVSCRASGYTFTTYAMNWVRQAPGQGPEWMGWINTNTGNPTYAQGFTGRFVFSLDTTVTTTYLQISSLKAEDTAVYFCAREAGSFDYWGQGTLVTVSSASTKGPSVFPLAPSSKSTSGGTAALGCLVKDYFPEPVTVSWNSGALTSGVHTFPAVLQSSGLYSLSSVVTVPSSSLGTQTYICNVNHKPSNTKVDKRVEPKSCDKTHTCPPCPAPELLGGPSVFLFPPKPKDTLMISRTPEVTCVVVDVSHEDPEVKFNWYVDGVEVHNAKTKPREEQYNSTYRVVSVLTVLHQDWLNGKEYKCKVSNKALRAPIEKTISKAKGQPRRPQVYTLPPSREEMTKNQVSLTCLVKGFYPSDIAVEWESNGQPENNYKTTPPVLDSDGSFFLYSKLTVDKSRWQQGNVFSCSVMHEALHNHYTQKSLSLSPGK
light: QSALTQPASVSGSPGQSITISCTGTSSDVYYYNYVSWYQQHPGRAPKLVIYDVSNRPSGVSNRFSGSKSGNTASLTISGLRAEDEADYYCSSYTVNRVWVFGGGTKLTVLGQPKAAPSVTLFPPSSEELQANKATLVCLISDFYPGAVTVAWKADSSPVKAGVETTTPSKQSNNKYAASSYLSLTPEQWKSHRSYSCQVTHEGSTVEKTVAPTECS
notes: also called IgG1-CD27-A-E345R-P329R
[1]
  binding result: no binding (tested: 15 µg/mL)
[2]
  binding result: no binding (tested: 10,000 nM)
[3]
  binding result: no binding (tested: 10,000 nM)
[4]
  binding result: no binding (tested: 10,000 nM)
[5]
  binding result: binds
[6]
  binding result: no binding (tested: 10,000 nM)
[7]
  EC50 (read off the curve): ~0.03 µg/mL
[8]
  EC50 (read off the curve): ~0.03 µg/mL
[9]
  binding result: no binding (tested: 10,000 nM)

B2: IgG1-b12-FEAR (antibody, V domains shown)
VH: QVQLVQSGAEVKKPGASVKVSCQASGYRFSNFVIHWVRQAPGQRFEWMGWINPYNGNKEFSAKFQDRVTFTADTSANTAYMELRSLRSADTAVYYCARVGPYSWDDSPQDNYYMDVWGKGTTVIVSS
VL: EIVLTQSPGTLSLSPGERATFSCRSSHSIRSRRVAWYQHKPGQAPRLVIHGVSNRASGISDRFSGSGSGTDFTLTITRVEPEDFALYYCQVYGASSYTFGQGTKLERK
notes: also called ctrl; anti-HIV-gp120 antibody IgG1-b12-FEAR
[10]
  binding result: no binding (tested: 10 µg/mL)
[11]
  binding result: no binding (tested: 10 µg/mL)
